Laboratory results published in paper doi:10.1101/2025.05.13.653593 (bioRxiv, 2025).

Biological target: T1, EccB5 (encoded by the Rv1782c gene), spotted on the Mtb proteome microarray (Mycobacterium tuberculosis, UniProt P9WNQ9 1-506)
T1 sequence: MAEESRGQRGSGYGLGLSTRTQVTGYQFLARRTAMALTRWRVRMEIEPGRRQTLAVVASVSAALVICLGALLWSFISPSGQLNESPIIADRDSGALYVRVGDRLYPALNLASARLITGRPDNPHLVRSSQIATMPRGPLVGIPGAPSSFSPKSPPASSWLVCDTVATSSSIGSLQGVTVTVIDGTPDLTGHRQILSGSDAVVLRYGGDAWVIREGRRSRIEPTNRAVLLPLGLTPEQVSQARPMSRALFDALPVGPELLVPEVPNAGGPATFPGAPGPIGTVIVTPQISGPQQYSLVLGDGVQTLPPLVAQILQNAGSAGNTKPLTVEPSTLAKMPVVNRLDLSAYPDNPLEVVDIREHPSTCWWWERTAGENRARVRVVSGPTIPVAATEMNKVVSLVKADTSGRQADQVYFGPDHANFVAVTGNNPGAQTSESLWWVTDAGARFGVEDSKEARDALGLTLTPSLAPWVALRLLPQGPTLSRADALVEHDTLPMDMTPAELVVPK
Assay: peptide or protein array
Conditions: both partners purified

B1: recombinant human GSDMD protein (natural protein, UniProt P57764 1-484, looked up)
chain: MGSAFERVVRRVVQELDHGGEFIPVTSLQSSTGFQPYCLVVRKPSSSWFWKPRYKCVNLSIKDILEPDAAEPDVQRGRSFHFYDAMDGQIQGSVELAAPGQAKIAGGAAVSDSSSTSMNVYSLSVDPNTWQTLLHERHLRQPEHKVLQQLRSRGDNVYVVTEVLQTQKEVEVTRTHKREGSGRFSLPGATCLQGEGQGHLSQKKTVTIPSGSTLAFRVAQLVIDSDLDVLLFPDKKQRTFQPPATGHKRSTSEGAWPQLPSGLSMMRCLHNFLTDGVPAEGAFTEDFQGLRAEVETISKELELLDRELCQLLLEGLEGVLRDQLALRALEEALEQGQSLGPVEPLDGPAGAVLECLVLSSGMLVPELAIPVVYLLGALTMLSETQHKLLAEALESQTLLGPLELVGSLLEQSAPWQERSTMSLPPGLLGNSWGEGAPAWVLLDECGLELGEDTPHVCWEPQAQGRMCALYASLALLSGLSQEPH
notes: also called gasdermin D; recombinant GSDMD
B1: binds.
